Values joined by “and” are separate entries in the source; they are usually repeats but may differ in a detail not shown here. Identical values can stand only once.

In this assay the target is synthetic beta1 peptide, identical in sequence to the complete cytoplasmic domain of the beta1 integrin subunit. Nature of the assay: pull-down.

With “alpha-actinin (from UniProt P05094 1-893) (natural protein)”, the percent of the protein in the lysate bound was 10% and > 10%.

Values taken from PMC2120552.
